Data published in publication PMC11831279.

Experiments:
[1] = target: PEDV spike ectodomain (S-ECD, amino acids 1 to 1325) fused with a T4 foldon at the C-terminus (porcine epidemic diarrhea virus (strain dndz) | bacteriophage T4 (printed as T4)); test: SEC
[2] = target: PEDV spike ectodomain (S-ECD, amino acids 1 to 1325) fused with a T4 foldon at the C-terminus (porcine epidemic diarrhea virus (strain dndz) | bacteriophage T4 (printed as T4)); test: transmission electron microscopy; TEM of the purified S protein

PEDV spike ectodomain (S-ECD, amino acids 1 to 1325) fused with a T4 foldon at the C-terminus (domain or fragment)
stoichiometry N [1]: 3
stoichiometry N [2]: 3
